Results on 1 molecule are retold here after patent US20230140200A1, “COMPOSITIONS AND METHODS FOR DETECTING CELLS UNDERGOING FERROPTOSIS USING AN ANTIBODY” (THE TRUSTEES OF COLUMBIA UNIVERSITY IN THE CITY OF NEW YORK, priority 2020, published 2023).

“Also recorded” adds a separate entry of the source.

Data set [1] has as its system B cell lymphoma mouse xenograft tumor tissue (SU-DHL-6 cells). Description: Staining of B cell lymphoma mouse xenograft tumor tissue sections. To be noted: 40 mg/kg IKE once daily IP for 14 days. The method, then: Tumor tissues were fixed in 4% paraformaldehyde (PFA) for 24 h at 4° C. followed by washing with PBS three times. The tissues were perfused in 30% sucrose for 24 h at 4° C. for cryo-protection. The samples were embedded in OCT cryostat sectioning medium, and then moved directly into a cryostat. After equilibration of temperature, frozen tumor tissues were cut into 5 μm thick sections. Tissue sections were mounted on to poly-L-lysine coated slides by placing the cold sections onto warm slides. Slides were stored at −80° C. until staining. For staining, slides were warmed to room temperature followed by washing with PBS twice. A hydrophobic barrier pen was used to draw a circle on each slide. The slides were permeabilized with PBS with 0.4% Triton X-100 (PBT) twice before non-specific-binding blocking by incubating the sections with 10% goat serum (ThermoFisher 50197Z) for 30 min at room temperature. […] All images were captured on a Zeiss LSM 800 confocal microscope at Plan-Apochromat 63×/1.40 Oil DIC objective with constant laser intensity for all analyzed samples. The intensity above threshold of the fluorescent signal of the bound antibodies was analyzed using NIH ImageJ software (ImageJ, RRID:SCR_003070). Data were expressed as fold change comparing with the vehicle. […]

The subject of another data set is TfR1. The experiment in a line: Western blot of TfR1 during ferroptosis. The class given is cell-based, human. The conditions noted are these: RSL3-induced and IKE-induced ferroptosis, HT-1080 cells. The method, then: HT-1080 cells were seeded in DMEM (Corning 10-013-CM) and 10% Hi-FBS with 1% penicillin and streptomycin (PS) with 1% MEM Non-Essential Amino Acids Solution (100×) (Thermo Fisher Scientific 11140-076) 16 h prior to use. DMSO or 1 μM of RSL3 was added and incubated for 4 h. Following treatment, the medium was aspirated from each dish and cells were washed twice with PBS. Cells were lysed with 70 μl lysis buffer (RIPA buffer from ThermoFisher, cat. 89900, 1 mM EDTA, 1 mM PMSF, 1× Halt™ protease inhibitor cocktail from ThermoFisher, cat. 78430 and 1× Halt™ phosphatase inhibitor cocktail from ThermoFisher, cat. 78426). Unlysed cells and debris were pelleted for 15 min at 16,000×g at 4° C. Samples were separated using SDS-PAGE and transferred to a polyvinylidene difluoride membrane. Transfer was performed using the iBlot2 system (Invitrogen). […]

A further data set deals with Huh-7 cells. The experiment in a line: Immunofluorescence in Huh-7 cells. In kind it is cell-based. The conditions noted are these: 1 μM RSL3, 4 h.
Another data set relates to SK-LMS-1 cells. Description: Immunofluorescence in SK-LMS-1 cells. In kind it is cell-based, human. The conditions noted are these: 1 μM RSL3, 4 h.
The test system of data set [2] is HT-1080 cells. The experiment in a line: Flow cytometry staining without permeabilization. In kind it is cell-based, human. To be noted: vs DMSO.
The test system of data set [3] is HT-1080 cells. Description: Immunofluorescence staining of treated cells, quantification of membrane intensity. The class given is cell-based, human.
A further data set has as its system SK-BR-3 cells. Description: Immunofluorescence in SK-BR-3 cells. In kind it is cell-based, human. The conditions noted are these: 1 μM RSL3, 4 h.

B1: 3F3-FMA: Murine monoclonal IgG1 raised against ferroptotic membrane fractions; antigen is transferrin receptor protein 1 (TfR1) (antibody, V domains shown)
VH: EVLLQQSGTELVRPGALVKLSCKASGFNIQDLYIHWVKQRPEQGLEWIGWIDPETDNTIYDPKFQGKASITADTSSNTAYLQLSSLTSEDTAMYYCSTGLLQWYFDVWGAGTAVTVSS
VL: DIVMTQSPSSLAMSIGQKVTMRCKSSQSLLNSYNQKNCLAWYQQKPGQSPKLLLYFVSTRESGVPDRFIGSGSGTDFTLTISSVQAEDLADYFCQQHYSTPLTFGAGTKLELK
For the molecule B1, the “antibody staining intensity in IKE-treated vs vehicle tumor tissue” value in data set [1] is recorded as “did not detect its antigen; also recorded: no difference”. Also, the “intensity of western blot bands during ferroptosis” value with TfR1 is “increased intensity of the bands”. For the same molecule, the “3F3-FMA staining upon ferroptosis induction” value in the data set with Huh-7 cells is “concentrated at the cell boundaries and became brighter”; in the data set on SK-LMS-1 cells it was “concentrated at the cell boundaries and became brighter”; with SK-BR-3 cells, “concentrated at the cell boundaries and became brighter”. Also, the “antibody staining intensity by flow cytometry in RSL3-treated cells” value in the data set on HT-1080 cells [2] (1 μM RSL3, 4 h) is reported as “increased intensities”. In addition, the “antibody staining intensity by flow cytometry in STS-induced apoptosis” value with HT-1080 cells [2] (1 μM STS, 6 h) was “decreased intensity; also recorded: decreased intensities”. Also, the “co-localization with GM130 (Golgi marker)” value in the data set with HT-1080 cells [3] (1 μM RSL3, 4 h) was “located in the Golgi”. Also, the “co-localization with Tom20 (mitochondria) and PDI (ER) markers” value in the data set on HT-1080 cells [3] (1 μM RSL3, 4 h) is reported as “not visible in mitochondria or the ER”. In the data set with HT-1080 cells [3] (1 μM RSL3, 4 h, vs DMSO), the “antibody staining / membrane intensity in RSL3-induced ferroptosis” value was “stained cell boundaries and the inside puncta became brighter”. Also, in the data set on HT-1080 cells [3] (1 μM STS, 6 h), the “antibody staining on cell surface in STS-induced apoptosis” value is given as “wasn't detected”. Moreover, the “antibody membrane intensity in camptothecin-induced apoptosis” value in the data set with HT-1080 cells [3] (2 μM camptothecin, 24 h) is reported as “no significant increase”. Also, the “antibody membrane intensities in H2O2-treated cells” value in the data set on HT-1080 cells [3] (1 mM H2O2, 4 h) is on record as “didn't observe increased membrane intensities”.
